Experimental data from patent US20200384109A1 (published 2020).

How the values were obtained:
Experiment in all cases: SET
[1] = molecular target: BKV serotype I (ST1) virus-like particles (VLPs) (UniProt P03088 1-362)
[2] = molecular target: BKV serotype II (ST2) virus-like particles (VLPs) (UniProt P14996 1-362)
[3] = molecular target: BKV serotype III (ST3) virus-like particles (VLPs) (UniProt P14996 1-362)
[4] = molecular target: BKV serotype IV (ST4) virus-like particles (VLPs) (UniProt P14996 1-362)

B1: NOV530 (antibody, V domains shown)
VH: QVQLQESGPGLVKPSQTLSLTCTVSGGSISGGGYYWSWIRQHPGKGLEFIGYIYYNRGTYYNPALKSRLTISVDTSKNDFSLKLSSVSAADTAVYYCARCVLGGYGSDAFDRWGQGTTVTVAS
VL: EIVLTQSPVTLSLSPGERAILSCRASQSVSSHLAWYQQKPGQAPRLLIYDASSRANGIPARFSGSGSGTDFTLTISSLAPEDFAVYYCQQRSSWPPSLTFGGGTKVEIRR
B1 was tested, and the Kd [1] was 0.015 nM.

B2: NOV796 (antibody, V domains shown)
VH: QVQLVQSGPGLVKPSETLSLTCSVSGGSISGYYWSWIRQPPGKGLEWIGLIYESGSANYNPSLKSRVTISLDTSKNQFSLKLKSVTAADTAVYYCARRVRGWSYGMDVWGQGTTVAVSS
VL: DIVLTQSPGTLSLSPGETATLSCRASQILSSSFLAWFQQIPGQAPRLLIYAASSRATGIPDRFSGSGSGTDFSLTISRLEPEDFAVYYCQHYGSSPPWTFGQGTKVEIKR
Binder B2 has a Kd [2] of 0.006 nM, a Kd [1] of 0.003 nM and a Kd [3] of 0.007 nM. The Kd [4] was 0.0009 nM.

B3: NOV581 (antibody, V domains shown)
VH: QVQLVESGGGLVQPGGSLRLSCVASGFTFSGYNMHWVRQAPGKGLEWVSYISNSGRTIYYADSVKGRFTLSRDNAKNSLYLQMNSLRAEDTAVYFCARDRDPQWLGNDALQIWGQGTMVTVSS
VL: EIVLTQSPGTLSLSPGERATLSCRASQSVSSGYLAWYQQKPGQAPRLLIYGASSRATGIPDRFSGSGSGTDFTLTISRLEPEDFAVYYCQQYGTSRKTFGQGTKVEIKR
B3 was tested, and the Kd [2] was 0.069 nM, the Kd [1] was 0.044 nM and the Kd [3] was 0.092 nM. For the same binder, the Kd [4] was over 6.6 nM.
